In paper PMC3477299 (ACS chemical biology, 2012):
Where two headings read alike, the source gives them in different places.

Legend:
[1] = target: T1, N-terminal His-tagged Human 4RON tau (human, UniProt P10636-6 1-383); assay: ELISA
[2] = target: T1, N-terminal His-tagged Human 4RON tau; assay: ELISA; remark: listed apart in the source

IC50 [1]: 3 µM | IC50 [2]: 59 µM
B1: Hsp90β (HSP90AB1) (natural protein)
chain: not shown
